The values that follow come from patent US20020102262A1, “Collagen binding protein compositions and methods of use” (priority 1996, published 2002).

The target of assay [1] is type II Col (collagen type II). Put plainly: biosensor analysis, equilibrium response; protein passed over covalently immobilized type II Col.
In assay [2] the test system is S. aureus strain Phillips. Put plainly: Mouse sepsis model, active immunization, intravenous challenge with S. aureus expressing CBP. The assay is classed as in vivo, mice. The conditions noted are these: for mice died/total: 100μg/mouse on days -31, -18, -7, 2.8×10^7 cfu/mouse i.v. day 0, end day 14. The text has this:
Gram-positive bacteria related sepsis is on the increase. In fact between one-third and one-half of all cases of sepsis are caused by gram-positive bacteria, particularly S. aureus and S. epidermidis. In the United States, it can be estimated that over 200,000 patients will develop gram-positive related sepsis this year. […] Mice were immunized subcutaneously with either M55 or a control antigen (bovine serum albumin) and then challenged intravenously with S. aureus. Eighty-three percent (35/42) of the mice immunized with M55 survived compared to only 27% of the BSA immunized mice (12/45). This is a compilation of 3 separate studies.
Day -31: 100μg/mouse of a CBP Epitope (i.e. M17, M31, or M55) or BSA emulsified with Freund's Complete adjuvant (Difco Laboratories) as a control.
Day -18: 100μg/mouse of a CBP Epitope (ie. M17, M31, or M55) or BSA dissolved in sterile phosphate buffered saline (PBS)
Day -7: 100μg/mouse of a CBP Epitope (i.e. M17, M31, or M55) or BSA dissolved in PBS
Day 0: inoculate intravenously S. aureus strain Phillips (which expresses CBP) (Dose: 2.8×10^7 cfu/mouse)
Day 14: end of study; all surviving mice were euthanized.

For assay [3], the target named is Col type II (Homo sapiens, UniProt P02458). Description: Biosensor analysis of CBD(151-318) and single-site mutants binding to Col type II. The conditions noted are these: for BR: approximate binding ratio; for Col-binding activity / affinity for Col compared with wild type CBD(151-318): in words. The text has this:
Mutational analysis was used to evaluate the putative binding site defined by the docking search. […] The surface area covered by the docked Col is about 1630 Å^2, which is 22% of the total solvent-accessible surface of CBD(172-318). […] Nine of these residues were mutated as well as two additional residues outside the putative binding region. The single-site lysine and alanine mutations were designed to disrupt the surface of the putative Col binding groove of wild type CBD(15 1-318). […] The MSCRAMM recognizes generic triple-helical structures (Speziale et al., 1986; Sakakibara et al., 1973; Heidemann and Roth, 1982), therefore, changes in the low-affinity dissociation constants were used to evaluate alterations in the binding of the mutant proteins (House-Pompeo et al., 1994).

Chain of Col type II (P02458 182-1241 limits assumed): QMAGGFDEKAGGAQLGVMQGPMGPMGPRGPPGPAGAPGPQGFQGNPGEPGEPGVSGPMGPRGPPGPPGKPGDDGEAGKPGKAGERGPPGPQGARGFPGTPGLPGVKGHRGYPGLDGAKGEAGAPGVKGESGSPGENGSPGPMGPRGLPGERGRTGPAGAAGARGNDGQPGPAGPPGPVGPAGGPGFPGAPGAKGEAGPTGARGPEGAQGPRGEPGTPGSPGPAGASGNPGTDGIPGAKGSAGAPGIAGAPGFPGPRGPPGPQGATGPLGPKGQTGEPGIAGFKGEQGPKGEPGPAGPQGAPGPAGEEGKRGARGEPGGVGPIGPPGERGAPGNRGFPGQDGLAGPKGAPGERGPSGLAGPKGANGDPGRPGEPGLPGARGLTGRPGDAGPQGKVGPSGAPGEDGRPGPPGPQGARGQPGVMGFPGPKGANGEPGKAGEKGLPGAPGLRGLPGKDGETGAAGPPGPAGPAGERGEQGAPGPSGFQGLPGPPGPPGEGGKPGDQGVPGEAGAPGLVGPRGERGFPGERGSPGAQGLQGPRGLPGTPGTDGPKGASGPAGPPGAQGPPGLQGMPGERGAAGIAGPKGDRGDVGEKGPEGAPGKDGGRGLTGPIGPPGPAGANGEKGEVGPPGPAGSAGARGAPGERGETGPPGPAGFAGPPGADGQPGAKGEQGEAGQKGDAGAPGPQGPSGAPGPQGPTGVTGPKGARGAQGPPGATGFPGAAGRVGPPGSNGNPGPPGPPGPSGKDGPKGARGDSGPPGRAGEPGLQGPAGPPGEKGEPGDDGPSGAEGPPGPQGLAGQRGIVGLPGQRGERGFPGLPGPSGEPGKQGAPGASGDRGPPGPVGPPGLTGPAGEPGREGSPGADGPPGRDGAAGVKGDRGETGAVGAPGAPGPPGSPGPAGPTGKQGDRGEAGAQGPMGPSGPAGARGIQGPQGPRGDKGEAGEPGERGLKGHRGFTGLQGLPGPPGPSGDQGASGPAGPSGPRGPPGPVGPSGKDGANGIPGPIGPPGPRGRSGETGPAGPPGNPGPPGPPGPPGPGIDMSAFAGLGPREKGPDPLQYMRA
Chain of type II Col (collagen type II) (P02459 182-1241): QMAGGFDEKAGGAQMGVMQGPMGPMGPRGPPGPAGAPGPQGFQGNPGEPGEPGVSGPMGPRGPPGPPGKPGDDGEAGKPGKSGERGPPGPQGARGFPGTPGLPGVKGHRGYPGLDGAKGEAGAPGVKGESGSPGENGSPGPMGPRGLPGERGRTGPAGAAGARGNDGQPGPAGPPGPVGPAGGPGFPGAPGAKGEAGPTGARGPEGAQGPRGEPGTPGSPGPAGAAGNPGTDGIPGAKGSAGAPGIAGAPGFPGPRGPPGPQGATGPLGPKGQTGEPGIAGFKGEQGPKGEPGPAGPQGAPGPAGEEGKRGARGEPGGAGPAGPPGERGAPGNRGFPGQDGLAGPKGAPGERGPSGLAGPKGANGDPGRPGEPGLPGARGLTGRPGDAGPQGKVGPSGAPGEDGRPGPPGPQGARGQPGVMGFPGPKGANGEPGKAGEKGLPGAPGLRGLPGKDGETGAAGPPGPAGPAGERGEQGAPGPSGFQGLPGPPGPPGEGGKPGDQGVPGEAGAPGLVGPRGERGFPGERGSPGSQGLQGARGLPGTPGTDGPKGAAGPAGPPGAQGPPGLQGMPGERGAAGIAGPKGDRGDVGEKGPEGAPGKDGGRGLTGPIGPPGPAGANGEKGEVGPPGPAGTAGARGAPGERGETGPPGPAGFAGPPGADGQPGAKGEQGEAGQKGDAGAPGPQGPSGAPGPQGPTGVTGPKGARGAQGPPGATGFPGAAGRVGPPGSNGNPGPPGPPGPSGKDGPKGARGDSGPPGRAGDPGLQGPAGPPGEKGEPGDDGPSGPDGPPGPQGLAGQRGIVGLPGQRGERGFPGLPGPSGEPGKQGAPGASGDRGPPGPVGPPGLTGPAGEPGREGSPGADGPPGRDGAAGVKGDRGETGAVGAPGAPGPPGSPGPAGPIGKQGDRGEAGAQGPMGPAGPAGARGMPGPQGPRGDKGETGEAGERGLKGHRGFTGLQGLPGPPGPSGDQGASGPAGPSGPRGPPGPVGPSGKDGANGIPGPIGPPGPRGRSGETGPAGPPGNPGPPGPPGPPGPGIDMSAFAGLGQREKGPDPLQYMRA

For the molecule “CBD(151-318) 175Y→K (from UniProt Q53654 151-318)”, the BR (approximate binding ratio) in assay [1] is more than 20.

Take “full-length sequence: previously-identified full-length S. aureus CBP [reference compound]”: in assay [2] (in words), the protection against sepsis entry is on record as “does not confer protection against sepsis”.

As for “CBD(151-318), recombinant Col-binding domain of the S. aureus CBP (wild type) (from UniProt Q53654 151-318)”, the BR (approximate binding ratio) in assay [1] turned out to be 10.

With “CBD(151-318) 193N→K (from UniProt Q53654 151-318)”, the BR (approximate binding ratio) in assay [1] worked out at 12.

Consider “CBD(151-318) 232N→A (from UniProt Q53654 151-318)”, for which, in assay [1], the BR (approximate binding ratio) came out at 12.

With “CBD(151-318) 191F→A (from UniProt Q53654 151-318)”, the BR (approximate binding ratio) in assay [1] is 10.

Consider “CBD(151-318) 221T→K (from UniProt Q53654 151-318)”, for which, in assay [1], the BR (approximate binding ratio) is 9.

As to “CBD(151-318) 225N→K (from UniProt Q53654 151-318)”, in assay [1], the BR (approximate binding ratio) came to 10.

In the case of “CBD(151-318) 223N→K (from UniProt Q53654 151-318)”, the BR (approximate binding ratio) in assay [1] amounted to 10.

Turning to “CBD(151-318) 233Y→A (from UniProt Q53654 151-318)”, in assay [1], the BR (approximate binding ratio) is 11.

On to “CBD(151-318) 278N→K (from UniProt Q53654 151-318)”, for which the BR (approximate binding ratio) in assay [1] came to 9.

As to “M31: recombinant S. aureus Col-binding MSCRAMM derivative, amino acids 61-343 of full length CBP (SEQ ID NO:4)”, the mice died/total in assay [2] is 12/14.

Take “CBD(151-318) 212Q→A (from UniProt Q53654 151-318)”: the BR (approximate binding ratio) in assay [1] is 10.

Turning to “M17: recombinant S. aureus Col-binding MSCRAMM derivative, amino acids 151-297 of full length CBP (SEQ ID NO:2)”, the mice died/total in assay [2] is reported as 10/15.

Turning to “CBD(151-318) 189R→A (from UniProt Q53654 151-318)”, the BR (approximate binding ratio) in assay [1] was more than 13.

B1: 212Q→A (protein)
chain: ITSGNKSTNVTVHKSEAGTSSVFYYKTGDMLPEDTTHVRWFLNINNEKSYVSKDITIKDQIAGGQQLDLSTLNINVTGTHSNYYSGQSAITDFEKAFPGSKITVDNTKNTIDVTIPQGYGSYNSFSINYKTKITNEQQKEFVNNSQAWYQEHGKEEVNGKSFNHTVHN
Take B1: in assay [3], the BR came out at 10 and the “Col-binding activity / affinity for Col compared with wild type CBD(151-318)” value is listed as “did not differ significantly from that of wild type CBD(151-318)”.

B2: 221T→K (protein)
chain: ITSGNKSTNVTVHKSEAGTSSVFYYKTGDMLPEDTTHVRWFLNINNEKSYVSKDITIKDQIQGGQQLDLSKLNINVTGTHSNYYSGQSAITDFEKAFPGSKITVDNTKNTIDVTIPQGYGSYNSFSINYKTKITNEQQKEFVNNSQAWYQEHGKEEVNGKSFNHTVHN
B2: in assay [3], the BR is given as 9 and the “Col-binding activity / affinity for Col compared with wild type CBD(151-318)” value was “did not differ significantly from that of wild type CBD(151-318)”.

B3: 233Y→A (protein)
chain: ITSGNKSTNVTVHKSEAGTSSVFYYKTGDMLPEDTTHVRWFLNINNEKSYVSKDITIKDQIQGGQQLDLSTLNINVTGTHSNAYSGQSAITDFEKAFPGSKITVDNTKNTIDVTIPQGYGSYNSFSINYKTKITNEQQKEFVNNSQAWYQEHGKEEVNGKSFNHTVHN
B3: in assay [3], the BR is given as 11.

B4: 189R→A (protein)
chain: ITSGNKSTNVTVHKSEAGTSSVFYYKTGDMLPEDTTHVAWFLNINNEKSYVSKDITIKDQIQGGQQLDLSTLNINVTGTHSNYYSGQSAITDFEKAFPGSKITVDNTKNTIDVTIPQGYGSYNSFSINYKTKITNEQQKEFVNNSQAWYQEHGKEEVNGKSFNHTVHN
B4: the BR in assay [3] is on record as more than 13.

B5: 193N→K (protein)
chain: ITSGNKSTNVTVHKSEAGTSSVFYYKTGDMLPEDTTHVRWFLKINNEKSYVSKDITIKDQIQGGQQLDLSTLNINVTGTHSNYYSGQSAITDFEKAFPGSKITVDNTKNTIDVTIPQGYGSYNSFSINYKTKITNEQQKEFVNNSQAWYQEHGKEEVNGKSFNHTVHN
As for B5, the BR in assay [3] is given as 12.

B6: 232N→A (protein)
chain: ITSGNKSTNVTVHKSEAGTSSVFYYKTGDMLPEDTTHVRWFLNINNEKSYVSKDITIKDQIQGGQQLDLSTLNINVTGTHSAYYSGQSAITDFEKAFPGSKITVDNTKNTIDVTIPQGYGSYNSFSINYKTKITNEQQKEFVNNSQAWYQEHGKEEVNGKSFNHTVHN
Take B6: in assay [3], the BR amounted to 12 and the “Col-binding activity / affinity for Col compared with wild type CBD(151-318)” value was “did not differ significantly from that of wild type CBD(151-318)”.

B7: 175Y→K (protein)
chain: ITSGNKSTNVTVHKSEAGTSSVFYKKTGDMLPEDTTHVRWFLNINNEKSYVSKDITIKDQIQGGQQLDLSTLNINVTGTHSNYYSGQSAITDFEKAFPGSKITVDNTKNTIDVTIPQGYGSYNSFSINYKTKITNEQQKEFVNNSQAWYQEHGKEEVNGKSFNHTVHN
Consider B7, for which, in assay [3], the BR is more than 20.

B8: 278N→K (protein)
chain: ITSGNKSTNVTVHKSEAGTSSVFYYKTGDMLPEDTTHVRWFLNINNEKSYVSKDITIKDQIQGGQQLDLSTLNINVTGTHSNYYSGQSAITDFEKAFPGSKITVDNTKNTIDVTIPQGYGSYNSFSIKYKTKITNEQQKEFVNNSQAWYQEHGKEEVNGKSFNHTVHN
In the case of B8, the BR in assay [3] was found to be 9.

B9: 191F→A (protein)
chain: ITSGNKSTNVTVHKSEAGTSSVFYYKTGDMLPEDTTHVRWALNINNEKSYVSKDITIKDQIQGGQQLDLSTLNINVTGTHSNYYSGQSAITDFEKAFPGSKITVDNTKNTIDVTIPQGYGSYNSFSINYKTKITNEQQKEFVNNSQAWYQEHGKEEVNGKSFNHTVHN
For the molecule B9, in assay [3], the BR was 10.

B10: 223N→K (protein)
chain: ITSGNKSTNVTVHKSEAGTSSVFYYKTGDMLPEDTTHVRWFLNINNEKSYVSKDITIKDQIQGGQQLDLSTLKINVTGTHSNYYSGQSAITDFEKAFPGSKITVDNTKNTIDVTIPQGYGSYNSFSINYKTKITNEQQKEFVNNSQAWYQEHGKEEVNGKSFNHTVHN
Regarding B10, the BR in assay [3] is reported as 10.

B11: 225N→K (protein)
chain: ITSGNKSTNVTVHKSEAGTSSVFYYKTGDMLPEDTTHVRWFLNINNEKSYVSKDITIKDQIQGGQQLDLSTLNIKVTGTHSNYYSGQSAITDFEKAFPGSKITVDNTKNTIDVTIPQGYGSYNSFSINYKTKITNEQQKEFVNNSQAWYQEHGKEEVNGKSFNHTVHN
As for B11, in assay [3], the BR is reported as 10 and the “Col-binding activity / affinity for Col compared with wild type CBD(151-318)” value was “did not differ significantly from that of wild type CBD(151-318)”.
